According to the supplement of paper PMC12764529:
± gives the half width of the 95% confidence interval.

Tests used:
[1] = folding stability dG unfold from trypsin proteolysis; higher = more stable
Summary of the method: (§1)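 Digests were run with trypsin and chymotrypsin at 11 concentrations in threefold dilutions, plus a no-protease condition, on designed mini-proteins in a PA-tagged cDNA display construct. The mini-proteins were under 80 residues, had no cysteine, and were kept only when AlphaFold2 dimer inter-PAE was above 15. After sequencing, Bayesian fitting of the counts gave K50, from which unfolding free energy was derived against a sequence-predicted unfolded-state K50 and a shared folded-state K50, per protease or combined.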

[2] = folding stability dG unfold from chymotrypsin proteolysis; higher = more stable
Summary of the method: as §1

[3] = folding stability dG unfold (combined trypsin and chymotrypsin); higher = more stable
Summary of the method: as §1

| Sequence | folding stability dG unfold [1] [kcal/mol] | folding stability dG unfold [2] [kcal/mol] | folding stability dG unfold [3] [kcal/mol] |
| --- | --- | --- | --- |
| SAGGSAGGGMPPVVTTEISVEEVRPDERDENGNRYFLVTTTLTFPDSTVTTERWLEEEELEELLSAGGSAGG [r6_724_JUSTAS] | 1.3 ± 0.033 | 0.912 ± 0.16 | 1.09 ± 0.15 |
| SAGGSAGGGMPSITLLETVEEKLPGSRTRVTTLSYDPATGNLVVTTTTFASPGTSTTSTTVLPPSAGGSAGG [r6_745_JUSTAS] | 1.13 ± 0.038 | 1.51 ± 0.069 | 1.33 ± 0.074 |
| SAGGSAGGGMRIDDIDIKQDPGNPNRYKITIKFDGPPIEFTVPPGEPLPIRFPDGKPLFEIPIDSAGGSAGG [r6_922_TrROS] | 0.312 ± 0.062 | 0.486 ± 0.16 | 0.479 ± 0.068 |
| SAGGSAGGGMSMEELKTVDYPLVVTVPLPDGSTVTVSAKVPAEDLDKAIPEVEERAKALAEEGASAGGSAGG [r6_903_JUSTAS] | -0.194 ± 0.053 | 1.26 ± 0.038 | 0.843 ± 0.059 |
| SAGGSAGGGMTAEELAAKAIEEALKAGETVTVEIEVTNPNGETFTLELTLVVVDPDDPEALEALSAGGSAGG [r6_534_TrROS_Hall] | 1.64 ± 0.057 | 1.29 ± 0.014 | 1.49 ± 0.05 |
| SAGGSAGGGMTLQITSIIEIKKPPDGPVVKFTVAGPGTTRTVTINLPENEIKPTTPIPLSRVLSSAGGSAGG [r6_585_JUSTAS] | 1.86 ± 0.13 | 0.968 ± 0.48 | 1.57 ± 0.31 |
| SAGGSAGGGNVYVKIEIYPYDPKNGEPQEQDITIPFETKEDAKDEIEKLLNMPNGMWIKIEVVDSAGGSAGG [r7_0_TrROS] | 1.31 ± 0.053 | 1.47 ± 0.035 | 1.47 ± 0.12 |
| SAGGSAGGGPDPSLPPPEVIEVVLPPDTLFRPPGGGYLSPEEVVELAKELEEREGIKATVTIRPSAGGSAGG [r6_162_JUSTAS] | 1 ± 0.09 | 0.588 ± 0.095 | 0.823 ± 0.15 |
| SAGGSAGGGPPLPPPVLVLPARVERVFYDPVTGELTVETVDFPVVIRPDGSVYLGDRWIPPELLSAGGSAGG [r6_514_TrMRF] | 1.23 ± 0.046 | 1.85 ± 0.12 | 1.61 ± 0.2 |
| SAGGSAGGGPPNAPLKIYTDDGSVNLLNLDGQPLLVTVHPDATAEITLPDGTKITVPIPPGANLSAGGSAGG [r6_105_TrMRF] | 1.26 ± 0.072 | 0.628 ± 0.054 | 0.977 ± 0.069 |
| SAGGSAGGGSISIPGPGPVSATTDPVTKTLVTVTYPTSEVRIPIEGDKFTEAETTPLPPPPALTSAGGSAGG [r6_847_JUSTAS] | -0.16 ± 0.1 | 1.08 ± 0.036 | 0.708 ± 0.072 |
| SAGGSAGGGSLKYTPGVHRLTYYDPATGTTTTLTFTSEEEALEYLKKKYPDVPWKRNPDGTWVLSAGGSAGG [r6_288_JUSTAS] | 1.62 ± 0.059 | 2.15 ± 0.12 | 2.08 ± 0.25 |
| SAGGSAGGGSMGSVSVSETTTTSTEGSTTTTTTVHTTTVGGTTTTTTTTTTTSPTPGASSPATASAGGSAGG [r6_684_JUSTAS] | 2.01 ± 0.065 | 1.71 ± 0.043 | 1.85 ± 0.047 |
| SAGGSAGGGSMSMPVTTKLVEEYTFPGTKEEAEEFLKKKLPPNYQVEITETPDSIKVKVYKVEGSAGGSAGG [r6_953_JUSTAS] | 2.31 ± 0.053 | 2.36 ± 0.042 | 2.38 ± 0.057 |
| SAGGSAGGGSMSVSYDPSTGNTITTTTTRSPTPLTTTTTTTTFPDGSTSTSTTTTAAPPPAPTTSAGGSAGG [r6_955_JUSTAS] | 0.833 ± 0.029 | 0.716 ± 0.024 | 0.761 ± 0.046 |
| SAGGSAGGGWITIPIYIIKMKRTRRDPDGKPKPLDPNDPEDFEVVPPRPFRIPLPPEEAKKLLKSAGGSAGG [r6_219_TrROS] | -0.542 ± 0.32 | -0.464 ± 0.43 | -0.434 ± 0.24 |
| SAGGSAGGIEVKIEGEIKPVKVTVSFSTANGDGNPKEYPVEKTYLVVDIKIEVNSPEAAKKINISAGGSAGG [r6_149_TrMRF] | 1.37 ± 0.058 | 3 ± 0.13 | 2.51 ± 0.14 |
| SAGGSAGGIIVWFPFDDIDELIKNGNIDEVEISRDPNDWFRFTPEIRPPPPPPPEQLAKNNKKNSAGGSAGG [r6_279_TrROS] | 1.03 ± 0.16 | 0.493 ± 0.11 | 0.735 ± 0.22 |
| SAGGSAGGIKPGETVLIVFKDKPEILVFPPGMSEEERKAFPGAKFILVKVEKPELTEEELKALESAGGSAGG [r6_830_TrROS_Hall] | -0.623 ± 0.13 | -0.275 ± 0.18 | -0.232 ± 0.16 |
| SAGGSAGGIRINPENGQIYFPLENGKAKSVPFKPGQEREIPNGWRITIKPDPPGPWEIEVKPLDSAGGSAGG [r6_296_TrROS] | -0.509 ± 0.42 | -0.578 ± 0.61 | -0.499 ± 0.22 |
| SAGGSAGGKAKIKKIEVELNEDGTLKVTAYDEETNEKITLEVKLPKPKPVYFDEEKLKEELEKKSAGGSAGG [r6_627_TrROS_Hall] | -0.313 ± 0.19 | 0.963 ± 0.14 | 0.629 ± 0.19 |
